B1: Ribonuclease P protein component 2 (Pyrococcus furiosus), Q8U151 (parent)
chain: MSERPKTLPPTLRDKKRYIAFKVISENQFNKDEIKEAIWNACLRTLGELGTAKAKPWLIKFDETTQTGIIRCDRNHVYDVIFSLTLVSDINGNKAIIKVLGVSGTIKRLKRKFLSQFGWR
partner: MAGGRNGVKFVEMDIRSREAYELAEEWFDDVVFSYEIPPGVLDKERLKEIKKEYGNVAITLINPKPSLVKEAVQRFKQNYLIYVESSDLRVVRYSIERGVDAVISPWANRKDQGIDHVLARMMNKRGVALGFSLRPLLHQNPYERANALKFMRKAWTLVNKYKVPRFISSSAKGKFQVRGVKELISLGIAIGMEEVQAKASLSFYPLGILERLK

Variants of: B1
Conditions: with rnp3_pyrfu rnp3, Q8TZS0

| Variant | effect of a mutation on the interaction |
| --- | --- |
| C72S | decreasing interaction |
